Results taken from publication PMC9482650, “Quantitative fragmentomics allow affinity mapping of interactomes” (Nature Communications, 2022).

System: HEK293T cells
Assay: Label-free MS proteome of stable cell lines expressing HPV16 E6 or E6ΔPBM
Format: cell-based, human
Settings: protein level; for Difference log2 E6/Ctrl / Ratio E6/Ctrl: E6 cell line vs control; for Difference log2 dPBM/E6 / Ratio dPBM/E6: dPBM cell line vs E6 cell line; for Difference log2 dPBM/Ctrl / Ratio dPBM/Ctrl: dPBM cell line vs control
Description: HEK293T and HeLa cells were authenticated and found 100% identity to ATCC cat. CRL-3216 and ATCC cat. CCL-2, respectively. Jurkat and HaCat cell lines were not authenticated (original source: ECACC and Deutsches Krebsforschungszentrum DKFZ, respectively). HeLa cells were grown in DMEM (1 g/L glucose, Gibco) medium completed with 5% FCS and 40 μg/mL gentamicin, diluted every 3rd/4th day 1/10. HaCat cells were grown in DMEM (1 g/L glucose, Gibco) medium completed with 10% FCS and 40 μg/mL gentamicin, diluted every 3rd/4th day 1/4. Jurkat cells were grown in RPMI (Gibco) medium completed with 10% FCS and 40 μg/mL gentamicin, diluted every 3rd/4th day 1/12. All cells were kept at 37 °C and 5% CO2. For proteomics analyses cells were seeded on T-175 flasks. After they reached confluency, adherent cells were washed with PBS once and collected by scraping with ice-cold lysis buffer (Hepes-KOH pH 7.5 50 mM, NaCl 150 mM, Triton X-100 1%, complete EDTA-free protease inhibitor cocktail 1×, EDTA 2 mM, TCEP 5 mM, glycerol 10%). Jurkat cells were collected by 1000 g × centrifugation, washed once with PBS, then collected by 1000 g × 5 min centrifugation again and lysed in ice-cold lysis buffer. Lysates were sonicated 4 × 20 s with 1 s long pulses on ice, then incubated rotating at 4 °C for 30 min. Lysates were centrifuged at 12,000 rpm 4 °C for 20 min and supernatant was kept for further analysis. Concentration determination was carried out by standard Bradford method (Bio-Rad Protein Assay Dye Reagent #5000006) using BSA (MP BIomedicals #160069) as control on a Bio-Rad SmartSpec 3000 spectrophotometer instrument.
The samples were precipitated with TCA 20% overnight at 4 °C and centrifuged at 14,000 rpm for 10 min at 4 °C. The protein pellets were washed twice with 1 mL cold acetone and air dried. The protein extracts were solubilized in urea 8 M, reduced with 5 mM TCEP for 30 min, and alkylated with 10 mM iodoacetamide for 30 min in the dark. Double digestion was performed at 37 °C with 500 ng endoproteinase Lys-C for 4 h, followed by fourfold dilution and an overnight digestion with 500 ng trypsin. Peptide mixtures were then desalted on C18 spin-column and dried on Speed-Vacuum.
Samples were analyzed using an Ultimate 3000 nano-RSLC (Thermo Scientific, San Jose California) coupled in line with a LTQ-Orbitrap ELITE mass spectrometer via a nano-electrospray ionization source (Thermo Scientific, San Jose California). Peptide mixtures were injected in 0.1% TFA on a C18 Acclaim PepMap100 trap-column (75 µm ID × 2 cm, 3 µm, 100 Å, Thermo Fisher Scientific) for 3 min at 5 µL/min with 2% ACN, 0.1% FA in H2O and then separated on a C18 Accucore nano-column (75 µm ID × 50 cm, 2.6 µm, 150 Å, Thermo Fisher Scientific) at 220 nl/min and 38 °C with a 90 min linear gradient from 5% to 30% buffer B (A: 0.1% FA in H2O/B: 99% ACN, 0.1% FA in H2O), regeneration at 5% B. The mass spectrometer was operated in positive ionization mode, in data-dependent mode with survey scans from m/z 350–1500 acquired in the Orbitrap at a resolution of 120,000 at m/z 400. The 20 most intense peaks from survey scans were selected for further fragmentation in the Linear Ion Trap with an isolation window of 2.0 Da and were fragmented by CID with normalized collision energy of 35%. (TOP20CID method) Unassigned and single charged states were excluded from fragmentation. The Ion Target Value for the survey scans (in the Orbitrap) and the MS2 mode (in the Linear Ion Trap) were set to 1E6 and 5E3 respectively and the maximum injection time was set to 100 ms for both scan modes. Dynamic exclusion was set to 20 s after one repeat count with mass width at ±10 ppm.
Proteins were identified by database searching using SequestHT (Thermo Fisher Scientific) with Proteome Discoverer 2.4 software (PD2.4, Thermo Fisher Scientific) on human FASTA database downloaded from SwissProt (reviewed, release 2020_11_27, 20304 entries, https://www.uniprot.org/). […]

B1: FERMT2 (protein, UniProt Q96AC1 1-680, looked up)
Fermitin family homolog 2: MALDGIRMPDGCYADGTWELSVHVTDLNRDVTLRVTGEVHIGGVMLKLVEKLDVKKDWSDHALWWEKKRTWLLKTHWTLDKYGIQADAKLQFTPQHKLLRLQLPNMKYVKVKVNFSDRVFKAVSDICKTFNIRHPEELSLLKKPRDPTKKKKKKLDDQSEDEALELEGPLITPGSGSIYSSPGLYSKTMTPTYDAHDGSPLSPTSAWFGDSALSEGNPGILAVSQPITSPEILAKMFKPQALLDKAKINQGWLDSSRSLMEQDVKENEALLLRFKYYSFFDLNPKYDAIRINQLYEQAKWAILLEEIECTEEEMMMFAALQYHINKLSIMTSENHLNNSDKEVDEVDAALSDLEITLEGGKTSTILGDITSIPELADYIKVFKPKKLTLKGYKQYWCTFKDTSISCYKSKEESSGTPAHQMNLRGCEVTPDVNISGQKFNIKLLIPVAEGMNEIWLRCDNEKQYAHWMAACRLASKGKTMADSSYNLEVQNILSFLKMQHLNPDPQLIPEQITTDITPECLVSPRYLKKYKNKQITARILEAHQNVAQMSLIEAKMRFIQAWQSLPEFGITHFIARFQGGKKEELIGIAYNRLIRMDASTGDAIKTWRFSNMKQWNVNWEIKMVTVEFADEVRLSFICTEVDCKVVHEFIGGYIFLSTRAKDQNESLDEEMFYKLTSGWV
  Difference log2 E6/Ctrl: 0.234
  Ratio E6/Ctrl: 1.176
  Difference log2 dPBM/E6: -3.123
  Ratio dPBM/E6: 0.1148
  Difference log2 dPBM/Ctrl: -2.889
  Ratio dPBM/Ctrl: 0.135

B2: CRTAP (protein, UniProt O75718 27-401, looked up)
Cartilage-associated protein: QYERYSFRSFPRDELMPLESAYRHALDKYSGEHWAESVGYLEISLRLHRLLRDSEAFCHRNCSAAPQPEPAAGLASYPELRLFGGLLRRAHCLKRCKQGLPAFRQSQPSREVLADFQRREPYKFLQFAYFKANNLPKAIAAAHTFLLKHPDDEMMKRNMAYYKSLPGAEDYIKDLETKSYESLFIRAVRAYNGENWRTSITDMELALPDFFKAFYECLAACEGSREIKDFKDFYLSIADHYVEVLECKIQCEENLTPVIGGYPVEKFVATMYHYLQFAYYKLNDLKNAAPCAVSYLLFDQNDKVMQQNLVYYQYHRDTWGLSDEHFQPRPEAVQFFNVTTLQKELYDFAKENIMDDDEGEVVEYVDDLLELEETS
  Difference log2 E6/Ctrl: 1.355
  Ratio E6/Ctrl: 2.558
  Difference log2 dPBM/E6: -3.496
  Ratio dPBM/E6: 0.08864
  Difference log2 dPBM/Ctrl: -2.141
  Ratio dPBM/Ctrl: 0.2267

B3: ATP5IF1 (protein, UniProt Q9UII2 26-106, looked up)
ATPase inhibitor, …: GSDQSENVDRGAGSIREAGGAFGKREQAEEERYFRAQSREQLAALKKHHEEEIVHHKKEIERLQKEIERHKQKIKMLKHDD
  Difference log2 E6/Ctrl: 4.465
  Ratio E6/Ctrl: 22.0916
  Difference log2 dPBM/E6: -4.258
  Ratio dPBM/E6: 0.05227
  Difference log2 dPBM/Ctrl: 0.2076
  Ratio dPBM/Ctrl: 1.155
